In patent publication CN111995682A (BIOSION BIO TECH NANJING CO LTD, dated 2020):

Experiments:
[1] = biological target: T1, 人SIRPβ-ECD-His抗原 (human, UniProt O00241 30-371); experiment: ELISA summary (Table 3, methods of Example 2)
T1 construct: It ends in a His tag; also called SIRPβ抗原

[2] = biological target: T2, 重组人SIRPα带his标签的蛋白 (human, UniProt P78324 31-373); experiment: SPR (Biacore T200), antibody captured on anti-mouse IgG CM5 chip, human SIRPα-his as analyte
T2 construct: extracellular domain; also called 人SIRPα-his抗原; SRPA-ECD-His; not shown: C-terminal His tag from vector pCMV-C-His

[3] = biological target: T2, 重组人SIRPα带his标签的蛋白; experiment: SPR (Biacore T200), ratio of KD against Benchmark
[4] = biological target: T2, 重组人SIRPα带his标签的蛋白; experiment: SPR (Biacore T200), human SIRPα-his as analyte

T2 sequence (P78324 31-373): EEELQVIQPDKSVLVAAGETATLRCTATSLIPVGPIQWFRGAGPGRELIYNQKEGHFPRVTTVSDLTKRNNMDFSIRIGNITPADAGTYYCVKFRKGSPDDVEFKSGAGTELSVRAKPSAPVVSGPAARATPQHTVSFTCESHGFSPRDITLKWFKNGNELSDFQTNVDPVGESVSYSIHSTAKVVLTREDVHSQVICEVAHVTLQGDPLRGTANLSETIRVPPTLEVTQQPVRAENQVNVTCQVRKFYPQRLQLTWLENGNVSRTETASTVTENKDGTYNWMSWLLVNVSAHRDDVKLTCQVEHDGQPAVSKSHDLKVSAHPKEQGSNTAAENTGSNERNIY
T1 sequence (O00241 other isoform, or with tags, fused parts or gaps): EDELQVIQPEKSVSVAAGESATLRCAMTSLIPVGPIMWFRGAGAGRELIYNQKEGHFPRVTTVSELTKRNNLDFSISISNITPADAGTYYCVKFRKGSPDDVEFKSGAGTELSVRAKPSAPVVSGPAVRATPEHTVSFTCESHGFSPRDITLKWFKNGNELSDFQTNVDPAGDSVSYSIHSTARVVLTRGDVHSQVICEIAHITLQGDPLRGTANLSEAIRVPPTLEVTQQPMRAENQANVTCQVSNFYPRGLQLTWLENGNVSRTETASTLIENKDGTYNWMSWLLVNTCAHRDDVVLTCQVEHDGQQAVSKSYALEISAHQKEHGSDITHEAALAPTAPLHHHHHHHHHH

B1: 抗人SIRPα单克隆抗体 A2D9D1B1 (antibody, mouse IgG1, kappa, V domains shown)
VH: QVQLKESGPGLVAPSQSLSITCTVSGFSLSSYAIHWVRQPPGKGLEWLGVIWTGGSTIYNSALMSRLNISKDNSKSQVFLKMNSLQTDDTAMYYCARGNYLRYWGQGTLVTVSA
VL: NIVLTQSPASLAVSLGQRATISCRASESVDSYGYSYMHWNQQKPGQPPKLLIYLASDLESGVPARFSGSGSRTDFTLTIDPVEADDAATYYCQQNNDDPWTFGGGTKLEIKR
notes: also called 鼠抗A2D9D1B1; A2D9D1B1单克隆抗体
[1]
  binding result: binds
[2]
  Kd: 1.25 nM
[3]
  fold stronger affinity than Benchmark: ~2.4 fold

B2: Benchmark (KWAR23抗体) (antibody, human IgG4 S228P, kappa, V domains shown)
VH: EVQLQQSGAELVKPGASVKLSCTASGFNIKDYYIHWVQQRTEQGLEWIGRIDPEDGETKYAPKFQDKATITADTSSNTAYLHLSSLTSEDTAVYYCARWGAYWGQGTLVTVSA
VL: QIVLTQSPAIMSASPGEKVTLTCSASSSVSSSYLYWYQQKPGSSPKLWIYSTSNLASGVPARFSGSGSGTSYSLTISSMEAEDAASYFCHQWSSYPRTFGAGTKLELKR
notes: Made in-house; full heavy and light chains are printed; The printed constant regions look human, while the ELISA and Biacore protocols describe anti-mouse capture and detection reagents; also called BM; 参照抗体
[4]
  Kd: 2.94 nM
